Measured values: the supplement of paper PMC10567573

B1: MNAT1 (parent)
chain: LAPIHKLEEALYEYQPLQIETYGP

Variants of: B1
Test: protein stability index of a GFP-peptide fusion (GPS, HEK-293T) (PSI 1-6); higher = more stable
Conditions: c terminus: a fixed tail appended
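Further: lentivirally expressed fusions sorted by FACS into six bins by GFP to DsRed ratio, PSI derived from sequencing read proportions per bin multiplied by bin number.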

Variant | protein stability index
LAPIHYLEEALYEYQPLQIETYGP [K6Y] | 2.1
LAPIHKLEEALYFYQPLQIETYGP [E13F] | 2.29
LAPIHKLEEALYGYQPLQIETYGP [E13G] | 2.37
LAPIHKLEEALYPYQPLQIETYGP [E13P] | 1.68
LAPIHKLEEALYCYQPLQIETYGP [E13C] | 1.64
LAPIHKLEEALYYYQPLQIETYGP [E13Y] | 1.61
LAPIHKLEEALYHYQPLQIETYGP [E13H] | 2.7
LAPIHKLEEALYTYQPLQIETYGP [E13T] | 2.14
LAPIHKLEEALYWYQPLQIETYGP [E13W] | 2.08
LAPIHKLEEALYVYQPLQIETYGP [E13V] | 2.04
LAPIHKLEEALYKYQPLQIETYGP [E13K] | 1.83
LAPIHKLEEALYNYQPLQIETYGP [E13N] | 1.61
LAPIHKLEEALYDYQPLQIETYGP [E13D] | 2.9
LAPIHKLEEALYLYQPLQIETYGP [E13L] | 2.22
LAPIHKLEEALYQYQPLQIETYGP [E13Q] | 1.43
LAPIHKLEEALYRYQPLQIETYGP [E13R] | 1.8
LAPIHKLEEALYMYQPLQIETYGP [E13M] | 2.49
LAPIHKLEEALYIYQPLQIETYGP [E13I] | 2.17
LAPIHKLEEALYAYQPLQIETYGP [E13A] | 1.53
LAPIHKLEEALYSYQPLQIETYGP [E13S] | 1.58
LAPIHKLEEALYEYQHLQIETYGP [P16H] | 2.43
LAPIHKLEEALYEYQGLQIETYGP [P16G] | 2.35
LAPIHKLEEALYEYQALQIETYGP [P16A] | 2.43
LAPIHKLEEALYEYQKLQIETYGP [P16K] | 1.92

Variant | protein stability index
LAPIHKLEEALYEYQVLQIETYGP [P16V] | 2.23
LAPIHKLEEALYEYQQLQIETYGP [P16Q] | 1.97
LAPIHKLEEALYEYQDLQIETYGP [P16D] | 2.86
LAPIHKLEEALYEYQCLQIETYGP [P16C] | 2.06
LAPIHKLEEALYEYQFLQIETYGP [P16F] | 1.44
LAPIHKLEEALYEYQILQIETYGP [P16I] | 2.79
LAPIHKLEEALYEYQRLQIETYGP [P16R] | 2.02
LAPIHKLEEALYEYQMLQIETYGP [P16M] | 1.85
LAPIHKLEEALYEYQYLQIETYGP [P16Y] | 1.52
LAPIHKLEEALYEYQTLQIETYGP [P16T] | 1.96
LAPIHKLEEALYEYQLLQIETYGP [P16L] | 1.88
LAPIHKLEEALYEYQELQIETYGP [P16E] | 2.67
LAPIHKLEEALYEYQSLQIETYGP [P16S] | 2.57
LAPIHKLEEALYEYQNLQIETYGP [P16N] | 2.94
LAPIHKLEEVLYEYQPLQIETYGP [A10V] | 2.71
LAPIHKLEENLYEYQPLQIETYGP [A10N] | 2.69
LAPIHKLEEGLYEYQPLQIETYGP [A10G] | 2.88
LAPIHKLEEQLYEYQPLQIETYGP [A10Q] | 2.42
LAPIHKLEETLYEYQPLQIETYGP [A10T] | 1.79
LAPIHKLEEWLYEYQPLQIETYGP [A10W] | 1.8
LAPIHKLEEYLYEYQPLQIETYGP [A10Y] | 2.35
LAPIHKLEEDLYEYQPLQIETYGP [A10D] | 2.91
LAPIHKLEEFLYEYQPLQIETYGP [A10F] | 2.45
LAPIHKLEEKLYEYQPLQIETYGP [A10K] | 2.52

Variant | protein stability index
LAPIHKLEEPLYEYQPLQIETYGP [A10P] | 2.73
LAPIHKLEECLYEYQPLQIETYGP [A10C] | 2.09
LAPIHKLEEHLYEYQPLQIETYGP [A10H] | 2.28
LAPIHKLEEILYEYQPLQIETYGP [A10I] | 2.1
LAPIHKLEEMLYEYQPLQIETYGP [A10M] | 1.45
LAPIHKLEERLYEYQPLQIETYGP [A10R] | 2.05
LAPIHKLEELLYEYQPLQIETYGP [A10L] | 1.69
LAPIHKLEESLYEYQPLQIETYGP [A10S] | 2.28
LAPIHKLEEELYEYQPLQIETYGP [A10E] | 3.04
LAPIHKLEEALGEYQPLQIETYGP [Y12G] | 2.64
LAPIHKLEEALFEYQPLQIETYGP [Y12F] | 1.19
LAPIHKLEEALWEYQPLQIETYGP [Y12W] | 2.39
LAPIHKLEEALAEYQPLQIETYGP [Y12A] | 1.27
LAPIHKLEEALREYQPLQIETYGP [Y12R] | 2.19
LAPIHKLEEALLEYQPLQIETYGP [Y12L] | 2.21
LAPIHKLEEALSEYQPLQIETYGP [Y12S] | 1.87
LAPIHKLEEALNEYQPLQIETYGP [Y12N] | 3.07
LAPIHKLEEALCEYQPLQIETYGP [Y12C] | 1.82
LAPIHKLEEALHEYQPLQIETYGP [Y12H] | 1.54
LAPIHKLEEALKEYQPLQIETYGP [Y12K] | 1.93
LAPIHKLEEALQEYQPLQIETYGP [Y12Q] | 1.88
LAPIHKLEEALMEYQPLQIETYGP [Y12M] | 2.25
LAPIHKLEEALVEYQPLQIETYGP [Y12V] | 2.13
LAPIHKLEEALPEYQPLQIETYGP [Y12P] | 2.23

Variant | protein stability index
LAPIHKLEEALEEYQPLQIETYGP [Y12E] | 2.65
LAPIHKLEEALTEYQPLQIETYGP [Y12T] | 2.24
LAPIHKLEEALDEYQPLQIETYGP [Y12D] | 3.07
LAPIHKLEEALIEYQPLQIETYGP [Y12I] | 2.64
LAPIHKLGEALYEYQPLQIETYGP [E8G] | 2.02
LAPIHKLVEALYEYQPLQIETYGP [E8V] | 1.53
LAPIHKLQEALYEYQPLQIETYGP [E8Q] | 2.05
LAPIHKLDEALYEYQPLQIETYGP [E8D] | 2.52
LAPIHKLHEALYEYQPLQIETYGP [E8H] | 1.67
LAPIHKLFEALYEYQPLQIETYGP [E8F] | 3.18
LAPIHKLREALYEYQPLQIETYGP [E8R] | 2.26
LAPIHKLWEALYEYQPLQIETYGP [E8W] | 3.45
LAPIHKLNEALYEYQPLQIETYGP [E8N] | 1.8
LAPIHKLMEALYEYQPLQIETYGP [E8M] | 3.31
LAPIHKLCEALYEYQPLQIETYGP [E8C] | 3.13
LAPIHKLTEALYEYQPLQIETYGP [E8T] | 2
LAPIHKLPEALYEYQPLQIETYGP [E8P] | 2.19
LAPIHKLKEALYEYQPLQIETYGP [E8K] | 2.52
LAPIHKLSEALYEYQPLQIETYGP [E8S] | 1.75
LAPIHKLYEALYEYQPLQIETYGP [E8Y] | 2.08
LAPIHKLIEALYEYQPLQIETYGP [E8I] | 3.59
LAPIHKLAEALYEYQPLQIETYGP [E8A] | 1.55
